Assay results taken from patent US20260242735A1 (UNIVERSIT T BASEL, published 2026).

B1: Refmab #3 (antibody, V domains shown)
VH: QVQLVQSGAEVKKPGSSVKVSCKASGYTFTDYNMHWVRQAPGQGLEWIGYIYPYNGGTGYNQKFKSKATITADESTNTAYMELSSLRSEDTAVYYCARGRPAMDYWGQGTLVTVSS
VL: DIQMTQSPSSLSASVGDRVTITCRASESVDNYGISFMNWFQQKPGKAPKLLIYAASNQGSGVPSRFSGSGSGTDFTLTISSLQPDDFATYYCQQSKEVPWTFGQGTKVEIK
notes: In the alanine scan antibodies were used as IgG or Fab
B2: Refmab #3 (antibody, V domains shown)
VH: B1 VH
VL: B1 VL
notes: The alanine scan used IgG or Fab
B3: Refmab #1 (antibody, V domains shown)
VH: EVQLVQSGAEVKKPGSSVKVSCKASGYTITDSNIHWVRQAPGQSLEWIGYIYPYNGGTDYNQKFKNRATLTVDNPTNTAYMELSSLRSEDTAFYYCVNGNPWLAYWGQGTLVTVSS
VL: DIQLTQSPSTLSASVGDRVTITCRASESLDNYGIRFLTWFQQKPGKAPKLLMYAASNQGSGVPSRFSGSGSGTEFTLTISSLQPDDFATYYCQQTKEVPWSFGQGTKVEVK
notes: In the alanine scan antibodies were used as IgG or Fab; also called hP67.6
B4: Refmab #1 (antibody, V domains shown)
VH: B3 VH
VL: B3 VL
notes: The alanine scan used IgG or Fab; also called hP67.6
B5: Refmab #2 (antibody, V domains shown)
VH: QVQLVQSGAEVKKPGSSVKVSCKASGGTFSDYAISWVRQAPGQGLEWMGRIIPILGVADYAQKFQGRVTITADKSTRTAYMELSSLRSEDTAVYYCARNWADAFDIWGQGTMVTVSS
VL: DIQLTQSPSSLSASVGDRVTITCRASQGISSVLAWYQQKPGKAPKLLIYDASSLESGVPSRFSGSGSGTDFTLTISSLQPEDFATYYCQQFDSSITFGQGTKLEIK
notes: as for B1
B6: Refmab #2 (antibody, V domains shown)
VH: B5 VH
VL: B5 VL
notes: as for B2
B7: Refmab #4 (antibody, V domains shown)
VH: QVQLVQSGAEVKKPGESVKVSCKASGYTFTNYGMNWVKQAPGQGLEWMGWINTYTGEPTYADKFQGRVTMTTDTSTSTAYMEIRNLGGDDTAVYYCARWSWSDGYYVYFDYWGQGTSVTVSS
VL: DIVMTQSPDSLTVSLGERTTINCKSSQSVLDSSTNKNSLAWYQQKPGQPPKLLLSWASTRESGIPDRFSGSGSGTDFTLTIDSPQPEDSATYYCQQSAHFPITFGQGTRLEIK
notes: as for B1
B8: Refmab #4 (antibody, V domains shown)
VH: B7 VH
VL: B7 VL
notes: as for B2

Tests used:
Assay in all cases: alanine scan, flow cytometry, HEK293-T;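 also: antibody binding to each alanine-substituted CD33 mutant expressed transiently in HEK293-T, read as fluorescence minus background, mean of duplicates, relative to wild-type CD33 set as 100%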
human CD33 L180A = human CD33 L180A (human, UniProt P20138 18-364)
Protocol: (§1) An alanine scan on human CD33 was performed to the determine the residues on CD33 that are involved in binding to the antibodies investigated. […] Briefly, a mutation library of CD33 was created by high-throughput, site-directed mutagenesis. Each residue was individually mutated to alanine, with alanine codons mutated to serine. The mutant library was arrayed in 384-well microplates and transiently transfected into HEK293-T. Following transfection, cells were incubated with the indicated antibodies (IgG or Fab) at concentrations pre-determined using an independent immunofluorescence titration curve on wild type CD33. […] Binding of each antibody to each mutant clone was determined in duplicates. For each point, background fluorescence was subtracted from the raw data, which were then normalized to antibody reactivity with wild type CD33.
(§2) Critical residues for antibody binding (outlined in dark grey) were residues whose mutations led to a binding of the test Abs of less than 20%. Additional secondary residues (outlined in light grey) were identified that led to a binding of the test Abs of between 20 and 40% as compared to the wild type CD33.

human CD33 K215A = human CD33 K215A (human, UniProt P20138 18-364)
Protocol: as §1, §2

human CD33 R202A = human CD33 R202A (human, UniProt P20138 18-364)
Protocol: as §1, §2

human CD33 T222A = human CD33 T222A (human, UniProt P20138 18-364)
Protocol: as §1, §2

human CD33 I227A = human CD33 I227A (human, UniProt P20138 18-364)
Protocol: as §1, §2

human CD33 C169A = human CD33 C169A (human, UniProt P20138 18-364)
Protocol: as §1, §2

human CD33 P201A = human CD33 P201A (human, UniProt P20138 18-364)
Protocol: as §1, §2

human CD33 H206A = human CD33 H206A (human, UniProt P20138 18-364)
Protocol: as §1, §2

human CD33 A182S = human CD33 A182S (human, UniProt P20138 18-364)
Protocol: as §1, §2

human CD33 A290S = human CD33 A290S (human, UniProt P20138 18-364)
Protocol: as §1, §2

human CD33 D298A = human CD33 D298A (human, UniProt P20138 18-364)
Protocol: as §1, §2

human CD33 S314A = human CD33 S314A (human, UniProt P20138 18-364)
Protocol: as §1, §2

human CD33 Q251A = human CD33 Q251A (human, UniProt P20138 18-364)
Protocol: as §1, §2

human CD33 K315A = human CD33 K315A (human, UniProt P20138 18-364)
Protocol: as §1, §2

human CD33 K288A = human CD33 K288A (human, UniProt P20138 18-364)
Protocol: as §1, §2

human CD33 G264A = human CD33 G264A (human, UniProt P20138 18-364)
Protocol: as §1, §2

human CD33 F279A = human CD33 F279A (human, UniProt P20138 18-364)
Protocol: as §1, §2

human CD33 N297A = human CD33 N297A (human, UniProt P20138 18-364)
Protocol: as §1, §2

human CD33 A261S = human CD33 A261S (human, UniProt P20138 18-364)
Protocol: as §1, §2

human CD33 S305A = human CD33 S305A (human, UniProt P20138 18-364)
Protocol: as §1, §2

human CD33 T268A = human CD33 T268A (human, UniProt P20138 18-364)
Protocol: as §1, §2

human CD33 P301A = human CD33 P301A (human, UniProt P20138 18-364)
Protocol: as §1, §2

human CD33 G266A = human CD33 G266A (human, UniProt P20138 18-364)
human CD33 G266A, sequence (P20138 18-364 G266A limits assumed): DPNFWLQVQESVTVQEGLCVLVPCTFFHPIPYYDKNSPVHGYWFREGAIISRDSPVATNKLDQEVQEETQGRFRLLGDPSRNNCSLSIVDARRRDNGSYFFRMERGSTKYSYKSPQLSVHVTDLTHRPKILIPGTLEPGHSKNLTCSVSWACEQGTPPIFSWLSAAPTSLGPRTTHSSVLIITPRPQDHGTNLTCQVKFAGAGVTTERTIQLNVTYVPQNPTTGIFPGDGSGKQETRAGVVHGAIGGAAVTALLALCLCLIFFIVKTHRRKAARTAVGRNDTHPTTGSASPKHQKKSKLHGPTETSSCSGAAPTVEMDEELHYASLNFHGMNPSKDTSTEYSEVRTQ
Protocol: as §1, §2

human CD33 G264A, sequence (P20138 18-364 G264A limits assumed): as the sequence (P20138 18-364 G266A limits assumed) above, with G247A, A249G counted along it
human CD33 H206A, sequence (P20138 18-364 H206A limits assumed): as the sequence (P20138 18-364 G266A limits assumed) above, with H189A, A249G counted along it
human CD33 C169A, sequence (P20138 18-364 C169A limits assumed): as the sequence (P20138 18-364 G266A limits assumed) above, with C152A, A249G counted along it
human CD33 T268A, sequence (P20138 18-364 T268A limits assumed): as the sequence (P20138 18-364 G266A limits assumed) above, with A249G, T251A counted along it
human CD33 K215A, sequence (P20138 18-364 K215A limits assumed): as the sequence (P20138 18-364 G266A limits assumed) above, with K198A, A249G counted along it
human CD33 R202A, sequence (P20138 18-364 R202A limits assumed): as the sequence (P20138 18-364 G266A limits assumed) above, with R185A, A249G counted along it
human CD33 L180A, sequence (P20138 18-364 L180A limits assumed): as the sequence (P20138 18-364 G266A limits assumed) above, with L163A, A249G counted along it
human CD33 K288A, sequence (P20138 18-364 K288A limits assumed): as the sequence (P20138 18-364 G266A limits assumed) above, with A249G, K271A counted along it
human CD33 A290S, sequence (P20138 18-364 A290S limits assumed): as the sequence (P20138 18-364 G266A limits assumed) above, with A249G, A273S counted along it
human CD33 S305A, sequence (P20138 18-364 S305A limits assumed): as the sequence (P20138 18-364 G266A limits assumed) above, with A249G, S288A counted along it
human CD33 F279A, sequence (P20138 18-364 F279A limits assumed): as the sequence (P20138 18-364 G266A limits assumed) above, with A249G, F262A counted along it
human CD33 S314A, sequence (P20138 18-364 S314A limits assumed): as the sequence (P20138 18-364 G266A limits assumed) above, with A249G, S297A counted along it
human CD33 A182S, sequence (P20138 18-364 A182S limits assumed): as the sequence (P20138 18-364 G266A limits assumed) above, with A165S, A249G counted along it
human CD33 Q251A, sequence (P20138 18-364 Q251A limits assumed): as the sequence (P20138 18-364 G266A limits assumed) above, with Q234A, A249G counted along it
human CD33 P301A, sequence (P20138 18-364 P301A limits assumed): as the sequence (P20138 18-364 G266A limits assumed) above, with A249G, P284A counted along it
human CD33 P201A, sequence (P20138 18-364 P201A limits assumed): as the sequence (P20138 18-364 G266A limits assumed) above, with P184A, A249G counted along it
human CD33 D298A, sequence (P20138 18-364 D298A limits assumed): as the sequence (P20138 18-364 G266A limits assumed) above, with A249G, D281A counted along it
human CD33 K315A, sequence (P20138 18-364 K315A limits assumed): as the sequence (P20138 18-364 G266A limits assumed) above, with A249G, K298A counted along it
human CD33 N297A, sequence (P20138 18-364 N297A limits assumed): as the sequence (P20138 18-364 G266A limits assumed) above, with A249G, N280A counted along it
human CD33 I227A, sequence (P20138 18-364 I227A limits assumed): as the sequence (P20138 18-364 G266A limits assumed) above, with I210A, A249G counted along it
human CD33 T222A, sequence (P20138 18-364 T222A limits assumed): as the sequence (P20138 18-364 G266A limits assumed) above, with T205A, A249G counted along it
human CD33 A261S, sequence (P20138 18-364 A261S limits assumed): as the sequence (P20138 18-364 G266A limits assumed) above, with A244S, A249G counted along it

Row | Binder | Mean % WT Binding (human CD33 L180A) | Mean % WT Binding (human CD33 K215A) | Mean % WT Binding (human CD33 R202A) | Mean % WT Binding (human CD33 T222A) | Mean % WT Binding (human CD33 I227A) | Mean % WT Binding (human CD33 C169A) | Mean % WT Binding (human CD33 P201A) | Mean % WT Binding (human CD33 H206A) | Mean % WT Binding (human CD33 A182S) | Mean % WT Binding (human CD33 A290S) | Mean % WT Binding (human CD33 D298A) | Mean % WT Binding (human CD33 S314A) | Mean % WT Binding (human CD33 Q251A) | Mean % WT Binding (human CD33 K315A) | Mean % WT Binding (human CD33 K288A) | Mean % WT Binding (human CD33 G264A) | Mean % WT Binding (human CD33 F279A) | Mean % WT Binding (human CD33 N297A) | Mean % WT Binding (human CD33 A261S) | Mean % WT Binding (human CD33 S305A) | also measured
1 | B1 | 102% | 79.8% | 128% | 117% | 127% | 115% | 90.9% | 97.3% | 127% |  |  |  |  |  |  |  |  |  |  |  | 
2 | B2 |  |  |  |  |  |  |  |  |  | 97.2 % WT binding | 80.1 % WT binding | 139 % WT binding | 93.3 % WT binding | 136 % WT binding | 107 % WT binding | 89 % WT binding | 138 % WT binding | 133 % WT binding | 121 % WT binding | 103 % WT binding | Mean % WT Binding (human CD33 T268A): 91.5 % WT binding; Mean % WT Binding (human CD33 P301A): 93.9 % WT binding; Mean % WT Binding (human CD33 G266A): 97.8 % WT binding
3 | B3 | 91.3% | 84.5% | 86.7% | 88.7% | 86.7% | 75.8% | 85.6% | 98.8% | 85.8% |  |  |  |  |  |  |  |  |  |  |  | 
4 | B4 |  |  |  |  |  |  |  |  |  | 105 % WT binding | 97.8 % WT binding | 96.2 % WT binding | 98.8 % WT binding | 80.6 % WT binding | 112 % WT binding | 95 % WT binding | 104 % WT binding | 94.9 % WT binding | 84.1 % WT binding | 86.4 % WT binding | Mean % WT Binding (human CD33 T268A): 102 % WT binding; Mean % WT Binding (human CD33 P301A): 101 % WT binding; Mean % WT Binding (human CD33 G266A): 100 % WT binding
5 | B5 | 118% | 98.4% | 112% | 121% | 110% | 106% | 110% | 110% | 115% |  |  |  |  |  |  |  |  |  |  |  | 
6 | B6 |  |  |  |  |  |  |  |  |  | 120 % WT binding | 81.5 % WT binding | 95.5 % WT binding | 117 % WT binding | 111 % WT binding | 108 % WT binding | 105 % WT binding | 116 % WT binding | 108 % WT binding | 100 % WT binding | 107 % WT binding | Mean % WT Binding (human CD33 T268A): 107 % WT binding; Mean % WT Binding (human CD33 P301A): 91.8 % WT binding; Mean % WT Binding (human CD33 G266A): 116 % WT binding
7 | B7 | 101% | 96.7% | 88.7% | 109% | 78.7% | 69.3% | 103% | 97.7% | 108% |  |  |  |  |  |  |  |  |  |  |  | 
8 | B8 |  |  |  |  |  |  |  |  |  | 107 % WT binding | 83.9 % WT binding | 95.5 % WT binding | 97.5 % WT binding | 48.4 % WT binding | 100 % WT binding | 89.9 % WT binding | 103 % WT binding | 88.9 % WT binding | 65.8 % WT binding | 104 % WT binding | Mean % WT Binding (human CD33 T268A): 100 % WT binding; Mean % WT Binding (human CD33 P301A): 97.9 % WT binding; Mean % WT Binding (human CD33 G266A): 112 % WT binding
